# Measured values from the nanobody polyreactivity screen of Harvey et al. (2022).
# Experiment: yeast display, Sf9 membrane polyspecificity reagent, FACS + sequencing; frameworks hold sequencing errors
# In short: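 Synthetic nanobody libraries on Saccharomyces cerevisiae BJ5465 were galactose-induced for 36–48 hours, stained 1 hour at 4 °C with 10% biotinylated, detergent-solubilized Sf9 membrane reagent and enriched on streptavidin microbeads. FACS then separated cells into low and high (top ~1%) gates by anti-HA (expression) and streptavidin (reagent binding) fluorescence. Genes were colony-PCR amplified, MiSeq 2 × 250 sequenced and CDR-length filtered. A clone's polyreactivity label is that of its gate of origin.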
row,Sequence,polyreactivity (PSR sort gate)
1,QVQLVESGGGLVQAGGSLRLSCAASGRLFPYYDMGWYRQAPGKERELVAAITGNGGSTYYADSVKGRFTISRDNAKNTVYLQMNSLKPEDTAVYYCAVDPYYYGEDYWGQGTQVTVSS,low polyreactivity
2,QVQLVESGGGLVQAGGSLRLSCAASGFTFYYYAMGWYRQAPGKERELVAAINWDGRTYYADSVKGRFTISRDNAKNTVYLQMNTLKPEDTAVYYCAAGYYLLTYRYDYWGQGTQVTVSS,low polyreactivity
3,QVQLVESGGGLVQAGGSLRLSCAASGRIFAGYAMGWYRKAPGKERELVASIRSSGSTYYADSVKGRFTISRDNAKNTVYLQMNSLKPEDTAVYYCAARSGYFRSRFDYWGQGTQVTVSS,high polyreactivity
4,QVQLVESGGGLVQAGGSLRLSCAASGITFHSYAMGWYRQAPGKERELVAGISSGGSTNYADSVKGRFTISRDNAKNTVYLQMNSLKPEDTAVYYCNADTPFYEYDYWGQGTQVTVSS,low polyreactivity
5,QVQLVESGGGLVQAGGSLRLSCAASGSTFRRYAMGWYRQAPGKERELVADIRGIGGSTYYADSVKGRFTISRDNAKNTVYLQMNSLKPEDTAVYYCNTSTLGGYYWGQGTQVTVSS,low polyreactivity
6,QVQLVESGGGLVQAGGSLRLSCAASGITFVYYAMRSYRQAPGKERELVAAITRSGDSTYYADSVKGRFTISRDNAKNTVYLQMNSLKPEDSAVYYCAAESYYSTYQVEYYYWGQGTQVTVSS,high polyreactivity
7,QVQLVESGGGLVQAGGSLRLSCAASGFIFVRYAMGWYRQAPGKERELVASITRSGGSTYYADSVKGRFTISRDNAKNTVYLQMNSLKPEDTAVYYCAASYYRSRGSTYGYWGQGTQVTVSS,high polyreactivity
8,QVQLVESGGGLVQAGGSLRLSCAASGITFVRYAMGWYRQAPGKEREFVAAINSIVGRTYYADSVKGRFTISRDNAKNTVYLQMNSLKPEDTAVYYCAADSNVRYGMDYWGQGTQVTVSS,low polyreactivity
9,QVQLVESGGGLVQAGGSLPLSCAASGSTFGYNAMGWYRQAPGKERELVAAITWTGASTYYADSVKGRFTISRDNAKNTVYLQMNSLKPEDTAVYYCNARFGKRGYSPPYDYWGQGTQVTVSS,low polyreactivity
10,QVQLVESGGGLVQAGGSLRLSCAASGIIFRGYAMGRNRHAPGKERELVARISTSGGSTYYADSVKGRFTISRDNAKNTVYLQMNSLKPEDTAVYYCAATRSFLTSWYYRSTSTRDYWGQGTQVTVSS,high polyreactivity
11,QVQLVESGGGVVQAGGSLRLSCAASGFIFSVIVMGWYRQAPGKERELVASIPSGGSPYYADSVKGRFTISRDNAKNTVYLQMNSLKPEDTAVYYCAAEFVRSVEHHPGFDYWGQGTQVTVSS,low polyreactivity
12,QVQLVESGGGLVQAGGSLRLSCAASGSSFRRNAMGWYRQAPGKERELVAAITRGGGSTYYADSVKGRFTISRDNAKNTVYLQMNSLKPEDTAVYYCAAQISATRETMDYWGQGTQVTVSS,high polyreactivity
13,QVQLVESGGGLVQAGGSLRLSCAASGSTFTYYAMGWYRQAPGTERELVAAITGSDGRTYYADSVKGRFTISRDNAKNTVYLQMNSLKPEDTAVYYCATDVPIREIDEFGYWGQGTQVTVSS,low polyreactivity
14,QVQLVESGGGLVHAGGSLRLSCAASGRTFAPYTMGWYRPAPGKERELVASISTGGSTYYADSVKGRFTISRYNAKNTVYLQMNSLKPEDTAVYYCAATGWAYGYGYGYWGQGTQVTVSS,low polyreactivity
15,QVQLVESGGGLVQAGGSLRLSCAASGSIFSSYAMGWYRQAPGKERELVAGISRRGGSTYYADSVKGRFTISRDNAKNTVYLLMNSLKPEDTAVYYCNARYAGSDLDYWGQGTQVTVSS,high polyreactivity
16,QVQLVESGGGLVQAGGSLRLSCAASGFTFDKNVMGWYRQAPGKERELVAAISVRGGTTYYADSVKGRFTISRDNAKNTVYLQMNSLKPEDTAVYYCAARAYGPPARYDSWGQGTQVTVSS,low polyreactivity
17,QVQLVESGGGLVQAGGSLRLSCAASGSIFVINAMGWYRQAPGKERELVAAIDWSGDSTYYADSVKVRFTISRDNAKNTVYLEMNSLKPEDTAVYYCAADLDSRGTYGRYEYWGQGTQVTVSS,low polyreactivity
18,QVQLVESGGGLVQAGGSLRLSCAASGFTFYQNAMGWYRQAPGKEREFVAAISRRGGSTYYADSVKGRFTSSRDNAKNTVYLQMNSLKPEDTAVYYCAADYKRKSDGDYWGQGTQVTVSS,high polyreactivity
19,QVQLVESGGGLVQAGGSLRLSCAASGLTLKRYAMGWYRQAPGKERELVAAISTRGGSTYYADSVKGRFTISRDNAKNTVYLQMNSLKPEDTAVYYCAAGDYWGQGTQVTVSS,high polyreactivity
20,QVQLVESGGGLVQAGGSLRLSCAASGRIFGINAMGWYRQAPGKERELVAAITSGVSTNYADSVKGRFTISRDNAKNTVYLQMNSLKPEDTAVYYCATRRNRSYDYWGQGTQVTVSS,low polyreactivity
21,QDQLVESGGGLVQAGGSLRLSCAASGGTFIYNTMGWYRQAPGKERELVAAINSGGSTTYADSVKGRFTISRDNAKNTVYLQMNSLKPEDTAVYYCAAVYVYLGVYARYPIWGYYYWGQGTQVTVSS,low polyreactivity
22,QVQLVESGGGLVQAGGSLRLSCAASGRTIGPYAMGWYRQAPRKERELVAAISWSVGSTYYADSVKGRFTISRDNAKNTVYLQMNSLKPVDTAVYFCGAVYYSHVYYWGQGTQVTVSS,high polyreactivity

row,Sequence,polyreactivity (PSR sort gate)
1,QDQLVESCGGLVQAGGSLRISCAASGRIFLPTAMGGYRQAPGKERELVAAINSSDASTDFADSVQGRFTISRDHAKTTVYLQRNSLKPEDTAVYYCAAENDTSDAVRYDYWGQGTQVTVSS,low polyreactivity
2,QVQLVESGGGLVQAGGSLRLSCAASGNILEYNAMGWYRQAPGKEREMVAAISRGGITNYADSVKGRFTISRDNAKNTVYLQMNCLKPEDTAVYYCATRWIGYTSQWDHFEYDYWGQGTQVTVSS,low polyreactivity
3,QVQLVESGGGLVQAGGSLRLICADSGLTFSCYTMGGYRQAPGKERELVADITVSGGTTYYADSVKGRFSISRDNAKNTVYLQMNSLKPEDTSVYYCNAQDTFTYYSSSPTYDYWGQGTQVTVSS,low polyreactivity
4,QVQLVESGGGLVQAGGSLRLSCAASGIFDYYGMGWYRQAPGKERELVAAITWNGGSTYYADSVKGRLTISRDNAKNTVYVQMNSLKPEDTAVYYCATTDWYHSPGYDYRGQGTQVTVSS,low polyreactivity
5,QVQLVESGGGLVQAGGSLRLSCAASGSTFTLYAMGWYRQAPGTERELVAAISWSGDTTYYADSVKGRFTISRDNAKNTVYLQMNILKPEDTAVYYCAADWYNSYYYEHESWGQGTQVTVSS,high polyreactivity
6,QVQLVESGGGLVQAGGSLRLSCAASGRIIARYTMGWYRQAPGKERELVAAITRGSSTYYADSVKGRFTISRDNALNTVFLHMNSQKPEDTAVNYCAKVYVVKSRYVYWGKGTQVTVSS,low polyreactivity
7,QVQLVESGGGLVQAGGSLRLSCAASGRILPFYAMGWYRQAPGKERELVATISWTSDSTYYADSVKGRFTISRDNAKNTVYLQMNSLKPEDTAVYYCAREYTYTYASTVIYDHWGQGTQVTVSS,low polyreactivity
8,QVQLVESGGGLVQAGGSLRLSCAASGSTFVYYAMGWYRQAPGKERELVADISWSGGDTYYADSVKGRFTISRDNAKNTVYFQMNSLKPEDTAVYYCAAEWSTPSYVGFADGFEYWGQGTQVTVSS,low polyreactivity
9,QVQLVESGGGLVQAGGSLRLSCAASGSIFAYYAMGWYRQAPGKERELVADITSSGGITYYADSVKGRFTISRDNAKNTVYLQMNSLKPEDTAVYYCNADSWAIGGGSYPYDYWGQGTQVTVSS,low polyreactivity
10,QGQRVESGGGLVQAGGSLRLSCAPSGRTFKYYAMGWYRQAPGKERELFAAISYTGGSTYFADSVMGRFTISRDNAKNTVYLQMNSLKPEDTAVYYCARSYYTNGNALKRDYWGQGTQVTVSS,high polyreactivity
11,QVQLVESGGGFVQAGGSLRLSCAASGYIFGIYAMGWYRQAPGKERELVAAISTSGGSTYYADSVKGRFTISRDNAKNTVYLQMNSLKPEDTAVYYCARPTTYGYYYWGQGTQVTVSS,high polyreactivity
12,QVQLVESGGGLVQAGGSLRLSCAASGSIFGRYAMGWYRQAPGTEREGVAAISRSCDNTSYADSVKGRFTISRDTAKNTVYLQMNSLKPEDSAVYYCNADRPFSLGQRKYVDFDEPYNYWGQGTQVTVSS,low polyreactivity
13,QVQLQESGGGLVQAGGTLRLSCQASGSIFVSVTMGWYRQAPGKERELVASIGRGSTTNHADSVKGRFTISRDNAKNIVYLLMNSLKPEDTAVYYCAALESYGKYHGYWGQGTQVTVSS,low polyreactivity
14,QVQLVESGGGLVQAGGSLRLSCAASGSIFVTYAMGWYRQAPGKERELVAAISTSGGSTYADSVKGRFTISRDNAKNTVYLQMNSLKPEDTAVYYCNADDPGYAVPWYWFKYDYWGQGTQVTGSS,low polyreactivity
15,QVQLVESGGGLVQAGGSLRLSCAASGRTFYLNAMGWYRQAPGKERELVAAIRFSGGSTYYADSVKGRFTISRDNAKNTVLLQMNSLKPEDTAVYYCNAGPYHSLYPTVSEYGYWGQGTQVTVSS,low polyreactivity
16,QVQLVESGGGLVQAGGSLRLSCAASGRTFIGYAMAWYRQAPGKEWELVAAISARGGRTYYADSVKGRFTISRDNAKNTVYLQMNSLKPEETAVYYCAAVRVKHSGYDYWGQGTQVTVSS,high polyreactivity
17,QVQLVESGGGLVQAGGSLRLSCAASGYIFTSYAMGWYRQAPGKERELVATITTGGSTYYADSVKGRFTISRDNAKNTVYLQMNSLKPEDTAVYYCNAVLHGWYDYWGQGTQVTVSS,low polyreactivity
18,QVQLVESGGGLVQAGGSLRLSCAASGIIFERYAMGWYRQAPGKERELVATISWSGGSTRYADSVKGRFTISRDNAKNTVYLQMNSLKPEDTAVYYCAAPSYFRMGYWGQGTQVTVSS,low polyreactivity
19,QVQLVESGGGLVQAGGSLRLSCAASGGTFAGYAMGWYRQAPGKERELVAAISRSGGSTYYADSVKGRFTISRDNAKNTVYLQMNSLKPEDTAVYYCIAASRTKFDYWGQGTQVTVSS,high polyreactivity
20,QVQLVESGGGLVQAGGSLRLSCAASGNIFGYYAMGWYRQAPGKERELVAAIRTRGGRTYYADSVKGRFTISRDNAKNTVYLQMNSLKPEDTAVYYCAARSIAGFWRYDYWGQGTQVTVSS,high polyreactivity
21,QVQLVESGGGLVQAGGSLPLSCAASGSTFSYYAMGWYRQAPGKERELVAAITSGGSTYYADSVKGRFTISRDNAKNTVYLQMNSLKPEDTAVYYCNAEPYTSSGGYRAYDFDYWGQGTQVTVSS,low polyreactivity
